Substitutions are numbered along the chain they refer to. Numbers in names are those of the source.
B1: soluble TSLPR ectodomain (domain or fragment, human, UniProt Q9HC73-1 23-221, looked up)
chain: QGGAAEGVQIQIIYFNLETVQVTWNASKYSRTNLTFHYRFNGDEAYDQCTNYLLQEGHTSGCLLDAEQRDDILYFSIRNGTHPVFTASRWMVYYLKPSSPKHVRFSWHQDAVTVTCSDLSYGDLLYEVQYRSPFDTEWQSKQENTCNVTIEGLDAEKCYSFWVRVKAMEDVYGPDTYPSDWSEVTCWQRGEIRDACAET
B2: TSLPR^N47Q (domain or fragment, human, UniProt Q9HC73-1 23-221, looked up)
chain: B1 chain with N25Q
notes: signal peptide in the construct; extracellular fragment of human TSLPR, NP_071431.2, residues 1-221, N-glycosylation mutant N47Q; also called EndoH-treated TSLPR^N47Q
B3: full-length FLAG-tagged human TSLPR (receptor, UniProt Q9HC73-1 23-371, looked up)
chain: QGGAAEGVQIQIIYFNLETVQVTWNASKYSRTNLTFHYRFNGDEAYDQCTNYLLQEGHTSGCLLDAEQRDDILYFSIRNGTHPVFTASRWMVYYLKPSSPKHVRFSWHQDAVTVTCSDLSYGDLLYEVQYRSPFDTEWQSKQENTCNVTIEGLDAEKCYSFWVRVKAMEDVYGPDTYPSDWSEVTCWQRGEIRDACAETPTPPKPKLSKFILISSLAILLMVSLLLLSLWKLWRVKKFLIPSVPDPKSIFPGLFEIHQGNFQEWITDTQNVAHLHKMAGAEQESGPEEPLVVQLAKTEAESPRMLDPQTEEKEASGGSLQLPHQPLQGGDVVTIGGFTFVMNDRSYVAL
B4: TSLP^Δ127–131 (ligand, human, UniProt Q969D9-1 29-159, looked up)
chain: YDFTNCDFEKIKAAYLSTISKDLITYMSGTKSTEFNNTVSCSNRPHCLTEIQSLTFNPTAGCASLAKEMFAMKTKAALAIWCPGYSETQINATQAMKKVTTNKCLEQVSQLQGLWRRFNRPLLKQQ
notes: His tag removed with thrombin; also called non-glycosylated human TSLP lacking a basic cassette; not shown: His6, N-terminal, cleaved
B5: refolded IL-7Rα ectodomain (domain or fragment, human, UniProt P16871-1 21-239, looked up)
chain: ESGYAQNGDLEDAELDDYSFSCYSQLEVNGSQHSLTCAFEDPDVNITNLEFEICGALVEVKCLNFRKLQEIYFIETKKFLLIGKSNICVKVGEKSLTCKKIDLTTIVKPEAPFDLSVVYREGANDFVVTFNTSHLQKKYVKVLMHDVAYRQEKDENKWTHVNLSSTKLTLLQRKLQPAAMYEIKVRSIPDHYFKGFWSEWSPSYYFRTPEINNSSGEMD
notes: extracellular fragment of human IL-7Rα, NP_002176.2, residues 21-239; His tag removed with thrombin; also called IL-7Rα ectodomain (E. coli); not shown: His6, N-terminal, cleaved
B6: soluble IL-7Rα ectodomain (domain or fragment, human, UniProt P16871-1 21-239, looked up)
chain: B5 chain
notes: signal peptide in the construct; extracellular fragment of human IL-7Rα, NP_002176.2, residues 1-239; also called interleukin 7 receptor α-chain
B7: TSLP-trap1 (other, human)
chain: QGGAAEGVQIQIIYFNLETVQVTWNASKYSRTNLTFHYRFNGDEAYDQCTNYLLQEGHTSGCLLDAEQRDDILYFSIRNGTHPVFTASRWMVYYLKPSSPKHVRFSWHQDAVTVTCSDLSYGDLLYEVQYRSPFDTEWQSKQENTCNVTIEGLDAEKCYSFWVRVKAMEDVYGPDTYPSDWSEVTCWQRGEIRDACAETPTPPKPKLSKGGSGGSGGSGGSGGSGGSGGSGGSGGSGGSGGSGGSGGSGGSGGSGGSGGSGGSGGSGGSESGYAQNGDLEDAELDDYSFSCYSQLEVNGSQHSLTCAFEDPDVNITNLEFEICGALVEVKCLNFRKLQEIYFIETKKFLLIGKSNICVKVGEKSLTCKKIDLTTIVKPEAPFDLSVVYREGANDFVVTFNTSHLQKKYVKVLMHDVAYRQEKDENKWTHVNLSSTKLTLLQRKLQPAAMYEIKVRSIPDHYFKGFWSEWSPSYYFRTPEINNSSGEMD
notes: signal peptide in the construct; extracellular domain of human TSLPR, NP_071431.2, residues 1-231 (native secretion signal of TSLPR used); flexible (Gly-Gly-Ser)20 linker, written out from the printed formula; extracellular part of human IL-7Rα, NP_002176.2, residues 21-239; also called Human TSLP-trap1; hTSLPtrap1
B8: TSLP-trap2 (other, human)
chain: ESGYAQNGDLEDAELDDYSFSCYSQLEVNGSQHSLTCAFEDPDVNITNLEFEICGALVEVKCLNFRKLQEIYFIETKKFLLIGKSNICVKVGEKSLTCKKIDLTTIVKPEAPFDLSVVYREGANDFVVTFNTSHLQKKYVKVLMHDVAYRQEKDENKWTHVNLSSTKLTLLQRKLQPAAMYEIKVRSIPDHYFKGFWSEWSPSYYFRTPEINNSSGEMDGGSGGSGGSGGSGGSGGSGGSGGSGGSGGSGGSGGSGGSGGSGGSGGSGGSGGSGGSGGSQGGAAEGVQIQIIYFNLETVQVTWNASKYSRTNLTFHYRFNGDEAYDQCTNYLLQEGHTSGCLLDAEQRDDILYFSIRNGTHPVFTASRWMVYYLKPSSPKHVRFSWHQDAVTVTCSDLSYGDLLYEVQYRSPFDTEWQSKQENTCNVTIEGLDAEKCYSFWVRVKAMEDVYGPDTYPSDWSEVTCWQRGEIRDACAETPTPPKPKLSK

Experiments:
[1] = target: wild type TSLP (TSLP^R127A/R130S) (human, UniProt Q969D9-1 29-159, R127A | R130S); experiment: cell-based or functional assay
[2] = target: B5; experiment: crystal structure; TSLP^Δ127–131:TSLPR^N47Q:IL-7Rα complex; 0.02 M citric acid, 0.08 M BIS-TRIS propane pH 8.8, 16% PEG 3,350, 293 K; 2.55 Å; conditions: both partners purified
[3] = target: T1, full-length HA-tagged human IL-7Rα (human, UniProt P16871-1 21-459); experiment: cell-based or functional assay
T1 sequence (looked up): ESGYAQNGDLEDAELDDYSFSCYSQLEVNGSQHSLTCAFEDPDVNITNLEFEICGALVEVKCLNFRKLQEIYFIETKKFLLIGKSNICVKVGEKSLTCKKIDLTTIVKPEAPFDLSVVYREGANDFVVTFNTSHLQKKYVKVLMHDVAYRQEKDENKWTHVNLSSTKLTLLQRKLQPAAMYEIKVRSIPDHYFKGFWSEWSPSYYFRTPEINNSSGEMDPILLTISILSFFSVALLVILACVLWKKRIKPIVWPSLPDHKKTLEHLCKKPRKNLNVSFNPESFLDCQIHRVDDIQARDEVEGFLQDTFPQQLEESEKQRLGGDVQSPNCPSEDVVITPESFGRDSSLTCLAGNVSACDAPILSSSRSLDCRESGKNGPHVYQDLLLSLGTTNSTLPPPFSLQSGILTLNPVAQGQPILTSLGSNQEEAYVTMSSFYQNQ

[4] = target: B2; experiment: SEC-MALS; Superdex 200 Increase 10/300 GL, HBS pH 7.4, 0.5 ml/min, 25 °C; glycan-minimized ternary complex; conditions: both partners purified
[5] = target: T2, binary TSLP^Δ127–131:TSLPR^N47Q complex (human, UniProt Q969D9-1 29-159; Q9HC73-1 23-221, Δ127–131 | N47Q); experiment: as above; conditions: both partners purified
T2 construct: as the chain of m8; signal peptide in the construct; extracellular fragment of human TSLPR, NP_071431.2, residues 1-221, N47Q; as the chain of m9; also called TSLP:TSLPR^N47Q complex; not shown: His6, N-terminal, cleaved; copies: 1 + 1

[6] = target: T3, preformed TSLP:TSLPR binary complex (human, UniProt Q969D9-1 29-159; Q9HC73-1 23-221, R127A | R130S, biotin, C-terminal (in vivo biotinylation)); experiment: BLI; TSLP-loaded biosensors incubated with 320 nM TSLPR, which was also in the assay buffer and all IL-7Rα samples; PBS with 0.01% BSA and 0.002% Tween 20, 25 °C; 1:1 model; conditions: both partners purified
T3 construct: signal peptide in the construct; as the chain of m1; extracellular fragment of human TSLPR, NP_071431.2, residues 1-221; as the chain of m2; 320 nM TSLPR was kept in the kinetics buffer and in all IL-7Rα samples; also called TSLP:TSLPR complex; not shown: Avi tag (from the vector pHL-AVITAG), C-terminal, kept

[7] = target: T4, biotinylated TSLP^R127A/R130S (human, UniProt Q969D9-1 29-159, R127A | R130S, biotin, C-terminal (in vivo biotinylation)); experiment: BLI; biotinylated TSLP^R127A/R130S on streptavidin biosensors, analyte in solution; PBS with 0.01% BSA and 0.002% Tween 20, 25 °C, Octet RED96; 1:1 model; conditions: both partners purified
T4 construct: signal peptide in the construct; glycosylated, mammalian-derived; also called thymic stromal lymphopoietin; source: HEK293T, co-transfected with pDisplay-BirA-ER, purified from conditioned medium (IMAC, SEC); not shown: Avi tag (from the vector pHL-AVITAG), C-terminal, kept

B1 was tested, and the “IC50 of inhibition of STAT5 activity induced by 10 pM TSLP by an equimolar mixture of the soluble TSLPR and IL-7Rα ectodomains” value [1] was 49 nM.

B2: binds [2].

B3 was tested, and the “EC50 of TSLP-induced STAT5 activity in cells expressing WT TSLPR and IL-7Rα (control of the site III mutants)” value [3] was 11 pM.

B4 was tested, and the “stoichiometry N” value [4] was 1.

For B5, the “stoichiometry N” value [5] was 1.

B6 gave a Kd [6] of 29000 pM, a koff [6] of 0.0036 s⁻¹ and a kon [6] of 123000 M⁻¹ s⁻¹.

With B7 the “IC50 of inhibition of STAT5 activity induced by 10 pM TSLP in HEK293T cells expressing TSLPR and IL-7Rα” value [1] was 67 pM, the Kd [7] was 120 pM and the koff [7] was 2e-05 s⁻¹.

With B8 the “IC50 of inhibition of STAT5 activity induced by 10 pM TSLP in HEK293T cells expressing TSLPR and IL-7Rα” value [1] was 44 pM.
